From PMC10861901

Target: A. fulgidus DsrC-trisulfide (Archaeoglobus fulgidus)
Assay: SPR

Kd: 0.2 µM
Substance: DsrMKJOP complex of Archaeoglobus fulgidus (from UniProt O29749 1-332; O29748 1-555; O29747 1-142; O29751 27-269; O29750 1-395)
